According to the supplement of paper PMC10126150:
± gives the standard deviation of the averaged measurements.

test system: ATP; assay: switch fluorescence ratio, 500 uM ATP over buffer (Cy3 cluster intensity, sum of 5 cycles each) (fold (ratio)); higher = stronger signal-on switching upon ATP binding; sequences stand for … in TCGTCGGCAGCGTCAGATGTGTATAAGAGACAGTTTTTTTTTTTTTTTTTTTTTTTTT…TC; details: aptamer strand: ATP DNA aptamer (quencher-CACCTGGGGGAGTATTGCGGAGGAAGG + anchor), 100 nM annealed; ATP concentration: 500 uM
How it was run: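 The quencher-labelled ATP aptamer, at 100 nM, was annealed to Cy3-labelled switching-strand clusters on a modified Illumina MiSeq flow-cell. The clusters were imaged in selection buffer, then after 15 min with 500 uM ATP at 22 °C, and this buffer/ATP cycle ran five times with NaOH stripping and re-annealing between runs. Per-cluster fluorescence ratios, summed target-cycle over summed buffer-cycle Cy3 intensity, were averaged per switch-domain sequence. Clusters outside 100-1000 RFU were excluded.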
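Also: ATP exposure 15 min at 22 °C before imaging.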

Sequence | switch fluorescence ratio
AGGGGTCTGT | 1.015 ± 0.0013
AGGGGTGGGA | 1.01 ± 0.02
AGGGGTGGGG | 1 ± 0.029
AGGGGTGGGT | 1.04 ± 0.054
AGGGGTGTTA | 0.991 ± 0.019
AGGGGTTAGG | 0.992 ± 0.021
AGGGGTTGGA | 1.01 ± 0.036
AGGGGTTTGT | 1.02 ± 0.017
AGGGGTTTTT | 0.991 ± 0.011
AGGGTAAACT | 1.27 ± 0.37
AGGGTAAGGA | 1.09 ± 0.18
AGGGTAATCG | 1.02 ± 0.011
AGGGTAGGGC | 1.02 ± 0.025
AGGGTAGTTG | 0.994 ± 0.019
AGGGTATAGA | 0.987 ± 0.01
AGGGTATGGG | 1.03 ± 0.058
AGGGTATGGT | 1.01 ± 0.023
AGGGTATTAT | 0.987 ± 0.019
AGGGTCAAGG | 0.971 ± 0.046
AGGGTCCCGC | 0.9929 ± 0.0024
AGGGTCGCTA | 1 ± 0.014
AGGGTCTTTT | 1.03 ± 0.053
AGGGTGAAAG | 0.992 ± 0.023
AGGGTGAATT | 0.9848 ± 0.0075
AGGGTGACAG | 0.9566 ± 0.0056
AGGGTGCGGG | 1.01 ± 0.018

Sequence | switch fluorescence ratio
AGGGTGCTGT | 1.02 ± 0.016
AGGGTGGCTT | 1.02 ± 0.088
AGGGTGTTAG | 1 ± 0.013
AGGGTGTTGG | 1 ± 0.017
AGGGTTAGGC | 0.933 ± 0.02
AGGGTTATAG | 0.982 ± 0.025
AGGGTTATGG | 0.996 ± 0.016
AGGGTTATTC | 1 ± 0.013
AGGGTTCGGA | 1.015 ± 0.0029
AGGGTTGTGT | 1.02 ± 0.029
AGGGTTTACG | 1.05 ± 0.045
AGGGTTTGCG | 1.04 ± 0.042
AGGGTTTTCT | 1 ± 0.012
AGGGTTTTTT | 1.02 ± 0.039
AGGTAAATGG | 1.02 ± 0.026
AGGTACAGAC | 1.12 ± 0.024
AGGTACTCGA | 1.05 ± 0.02
AGGTAGATAG | 0.948 ± 0.0068
AGGTAGGAAG | 0.999 ± 0.034
AGGTAGGATT | 1.01 ± 0.05
AGGTAGGGTA | 0.992 ± 0.031
AGGTAGGTGT | 1.04 ± 0.023
AGGTAGTTC | 0.96 ± 0.1
AGGTATGGAG | 0.981 ± 0.065
AGGTATTATC | 0.968 ± 0.014
AGGTATTGCG | 0.994 ± 0.044

Sequence | switch fluorescence ratio
AGGTCAGGTT | 1.0131 ± 0.0003
AGGTCAGTTT | 0.989 ± 0.017
AGGTCCGCTT | 1.32 ± 0.039
AGGTCCGGGT | 0.9981 ± 0.0065
AGGTCGAGGG | 0.997 ± 0.026
AGGTCGGGAT | 1 ± 0.045
AGGTCTAAGG | 1 ± 0.022
AGGTCTAGC | 0.995 ± 0.017
AGGTCTTATT | 1.08 ± 0.094
AGGTCTTCCG | 1 ± 0.011
AGGTCTTGGG | 0.972 ± 0.027
AGGTGATTAG | 0.986 ± 0.044
AGGTGCATAT | 1.045 ± 0.0041
AGGTGCTAAT | 0.968 ± 0.011
AGGTGGGGCT | 0.9811 ± 0.0089
AGGTGGGGGC | 1.003 ± 0.0095
AGGTGGGTCT | 0.991 ± 0.011
AGGTGGGTTT | 0.988 ± 0.044
AGGTGTGATA | 1.1 ± 0.051
AGGTGTGGCT | 1 ± 0.048
AGGTGTGTCT | 1.019 ± 0.0093
AGGTGTTATT | 1.005 ± 0.0074
AGGTGTTTTG | 1.02 ± 0.0087
AGGTTAAAAT | 1.03 ± 0.024
AGGTTAAGCA | 1.02 ± 0.0034
